From paper PMC9776393, “Gold Nanoparticles-MWCNT Based Aptasensor for Early Diagnosis of Prostate Cancer” come the findings set out here.

The target of the series is prostate-specific antigen (PSA) (human (semen), UniProt P07288 25-261). Kind of series: electrochemical aptasensor (DPV); MCH-blocked MWCNT/AuNP electrode; LoD 1 pg/mL, linear 1-100 ng/mL (abstract) or 0.001-100 ng/mL (Table 2); PBS pH 7.2, [Fe(CN)6]3-/4- redox probe, 5 min binding; aptamer heated to 95 C and cooled, immobilized at room temperature with MgCl2 and NaCl; binding temperature not stated. Particulars: protein: commercial.
prostate-specific antigen (PSA), sequence (P07288 25-261): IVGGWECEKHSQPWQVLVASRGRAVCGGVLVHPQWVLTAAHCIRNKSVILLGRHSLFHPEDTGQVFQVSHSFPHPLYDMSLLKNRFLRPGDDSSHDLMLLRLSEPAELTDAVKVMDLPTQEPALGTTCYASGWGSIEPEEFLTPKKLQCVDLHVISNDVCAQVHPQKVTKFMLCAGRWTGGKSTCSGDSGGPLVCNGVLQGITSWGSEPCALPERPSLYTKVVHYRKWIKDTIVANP

B1: PSA aptamer (ssDNA)
DNA: TTTTTAATTAAAGCTCGCCATCAAATAGCTTT
modifications: 5'-HS-(CH2)6 thiol
Consider B1, for which the binding result is given as “binds”.
